Non-standard residues stand in square brackets, D forms with d. No end group written: not given here. Trp(5-OH) = N[C@@H](Cc1c[nH]c2ccc(O)cc12)C(=O)O; Phe(4-NH2) = Nc1ccc(C[C@H](N)C(=O)O)cc1
B1: D-Syn3 (peptide)
chain 1: RRRRRRRC
chain 2: CGSFPPWVQKTEV
modifications: cysteine pairing not given here; also: D- prefix in name, meaning not given here
B2: SYNGAP peptide D-Ser3 (peptide)
peptide: RRRRRRG[dS]FPPWVQQTRV
B3: aC binder peptide (peptide)
peptide: GSFPPWVQ
B4: SYNGAP peptide D-Gln9 (peptide)
peptide: RRRRRRGSFPPWV[dQ]QTRV
B5: SYNGAP peptide D-Val8 (peptide)
peptide: RRRRRRGSFPPW[dV]QQTRV
B6: SYNGAP peptide W7-OHW (peptide)
peptide: RRRRRRGSFPP[Trp(5-OH)]VQQTRV
B7: SYNGAP peptide D-Pro5 (peptide)
peptide: RRRRRRGSFP[dP]WVQQTRV
B8: Syn3* (peptide)
peptide: CGSFPPWVKKTEV
modifications: not fully specified
B9: CN2097 (peptide)
chain 1: RRRRRRRC
chain 2: CKNYKKTEV
B10: SYNGAP peptide F4-NH2F (peptide)
peptide: RRRRRRGS[Phe(4-NH2)]PPWVQQTRV
B11: SYNGAP peptide D-Pro4 (peptide)
peptide: RRRRRRGSF[dP]PWVQQTRV

What was measured:
[1] = target: T1, PSD-95 PDZ3cα (residues R309-S422) (Homo sapiens, UniProt P78352); assay: SPR binding of peptides to immobilized PDZ3cα
T1 sequence (P78352 309-422): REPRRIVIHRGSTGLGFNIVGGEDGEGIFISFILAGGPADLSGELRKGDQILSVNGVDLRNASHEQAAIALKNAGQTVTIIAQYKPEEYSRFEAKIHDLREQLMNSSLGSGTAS

[2] = target: T1, PSD-95 PDZ3cα (residues R309-S422); assay: SPR
AS mouse model = AS mouse model / animal studies; format: in vivo; settings: data to be reported elsewhere
[3] = target: PSD-95 PDZ3cα protein (residues R309-S422) (UniProt P78352 309-422); assay: SPR
Chain of PSD-95 PDZ3cα protein (residues R309-S422) (P78352 309-422): as above

| Molecule | Kd [1] | koff [3] | kon [3] | further results |
| --- | --- | --- | --- | --- |
| GSFPPWVQ [aC binder, reference compound] | 11100 nM |  |  |  |
| CC(C)[C@H](NC(=O)[C@H](CCCNC(=N)N)NC(=O)[C@@H](NC(=O)[C@H](CCC(N)=O)NC(=O)[C@H](CCC(N)=O)NC(=O)[C@@H](NC(=O)[C@H](Cc1c[nH]c2ccccc12)NC(=O)[C@@H]1CCCN1C(=O)[C@@H]1CCCN1C(=O)[C@H](Cc1ccccc1)NC(=O)[C@@H](CO)NC(=O)CNC(=O)[C@H](CCCNC(=N)N)NC(=O)[C@H](CCCNC(=N)N)NC(=O)[C@H](CCCNC(=N)N)NC(=O)[C@H](CCCNC(=N)N)NC(=O)[C@H](CCCNC(=N)N)NC(=O)[C@@H](N)CCCNC(=N)N)C(C)C)[C@@H](C)O)C(=O)O [D-Ser3] | 7.8 nM |  |  |  |
| SYNGAP peptide V8L |  |  |  | koff [2]: 0.00381 s⁻¹ |
| SYNGAP peptide F4H |  |  |  | koff [2]: 0.0261 s⁻¹; kon [2]: 216000 M⁻¹ s⁻¹ |
| CC(C)[C@H](NC(=O)[C@H](CCCNC(=N)N)NC(=O)[C@@H](NC(=O)[C@H](CCC(N)=O)NC(=O)[C@H](CCC(N)=O)NC(=O)[C@@H](NC(=O)[C@H](Cc1c[nH]c2ccccc12)NC(=O)[C@H]1CCCN1C(=O)[C@@H]1CCCN1C(=O)[C@H](Cc1ccccc1)NC(=O)[C@H](CO)NC(=O)CNC(=O)[C@H](CCCNC(=N)N)NC(=O)[C@H](CCCNC(=N)N)NC(=O)[C@H](CCCNC(=N)N)NC(=O)[C@H](CCCNC(=N)N)NC(=O)[C@H](CCCNC(=N)N)NC(=O)[C@@H](N)CCCNC(=N)N)C(C)C)[C@@H](C)O)C(=O)O [D-Pro5] | 24.3 nM |  |  |  |
| SYNGAP peptide V8I |  |  |  | koff [2]: 0.00294 s⁻¹ |
| RRRRRRGSHPPWVQQTRV [F4H] | 121 nM |  |  |  |
| RRRRRRGSFPPWIQQTRV [V8I] | 101 nM |  |  |  |
| CC(C)[C@H](NC(=O)[C@H](CCCNC(=N)N)NC(=O)[C@@H](NC(=O)[C@H](CCC(N)=O)NC(=O)[C@@H](CCC(N)=O)NC(=O)[C@@H](NC(=O)[C@H](Cc1c[nH]c2ccccc12)NC(=O)[C@@H]1CCCN1C(=O)[C@@H]1CCCN1C(=O)[C@H](Cc1ccccc1)NC(=O)[C@H](CO)NC(=O)CNC(=O)[C@H](CCCNC(=N)N)NC(=O)[C@H](CCCNC(=N)N)NC(=O)[C@H](CCCNC(=N)N)NC(=O)[C@H](CCCNC(=N)N)NC(=O)[C@H](CCCNC(=N)N)NC(=O)[C@@H](N)CCCNC(=N)N)C(C)C)[C@@H](C)O)C(=O)O [D-Gln9] | 57.3 nM |  |  |  |
| CC(C)[C@H](NC(=O)[C@H](CCCNC(=N)N)NC(=O)[C@@H](NC(=O)[C@H](CCC(N)=O)NC(=O)[C@H](CCC(N)=O)NC(=O)[C@H](NC(=O)[C@H](Cc1c[nH]c2ccccc12)NC(=O)[C@@H]1CCCN1C(=O)[C@@H]1CCCN1C(=O)[C@H](Cc1ccccc1)NC(=O)[C@H](CO)NC(=O)CNC(=O)[C@H](CCCNC(=N)N)NC(=O)[C@H](CCCNC(=N)N)NC(=O)[C@H](CCCNC(=N)N)NC(=O)[C@H](CCCNC(=N)N)NC(=O)[C@H](CCCNC(=N)N)NC(=O)[C@@H](N)CCCNC(=N)N)C(C)C)[C@@H](C)O)C(=O)O [D-Val8] | 20.9 nM |  |  |  |
| CC(C)[C@H](NC(=O)[C@H](CCCNC(=N)N)NC(=O)[C@@H](NC(=O)[C@H](CCC(N)=O)NC(=O)[C@H](CCC(N)=O)NC(=O)[C@@H](NC(=O)[C@H](Cc1c[nH]c2ccccc12)NC(=O)[C@@H]1CCCN1C(=O)[C@@H]1CCCN1C(=O)[C@H](Cc1ccccc1)NC(=O)[C@H](CO)NC(=O)CNC(=O)[C@H](CS)NC(=O)[C@H](CS)NC(=O)[C@H](CCCNC(=N)N)NC(=O)[C@H](CCCNC(=N)N)NC(=O)[C@H](CCCNC(=N)N)NC(=O)[C@H](CCCNC(=N)N)NC(=O)[C@H](CCCNC(=N)N)NC(=O)[C@H](CCCNC(=N)N)NC(=O)[C@@H](N)CCCNC(=N)N)C(C)C)[C@@H](C)O)C(=O)O [SYNGAP] |  |  |  | effect in AS mouse model / animal studies (AS mouse model): did not have the same beneficial effects as Syn3 |
| RRRRRRGSFPPWLQQTRV [V8L] | 58.4 nM |  |  |  |
| CC(C)[C@H](NC(=O)[C@H](CCCNC(=N)N)NC(=O)[C@@H](NC(=O)[C@H](CCC(N)=O)NC(=O)[C@H](CCC(N)=O)NC(=O)[C@@H](NC(=O)[C@H](Cc1c[nH]c2ccccc12)NC(=O)[C@@H]1CCCN1C(=O)[C@H]1CCCN1C(=O)[C@H](Cc1ccccc1)NC(=O)[C@H](CO)NC(=O)CNC(=O)[C@H](CCCNC(=N)N)NC(=O)[C@H](CCCNC(=N)N)NC(=O)[C@H](CCCNC(=N)N)NC(=O)[C@H](CCCNC(=N)N)NC(=O)[C@H](CCCNC(=N)N)NC(=O)[C@@H](N)CCCNC(=N)N)C(C)C)[C@@H](C)O)C(=O)O [D-Pro4] | 6.1 nM |  |  |  |
| B1 |  | 0.0125 s⁻¹ | 458000 M⁻¹ s⁻¹ |  |
| B2 |  | 0.00493 s⁻¹ | 633000 M⁻¹ s⁻¹ |  |
| B3 |  | 0.00592 s⁻¹ | 1000 M⁻¹ s⁻¹ |  |
| B4 |  | 0.0182 s⁻¹ | 317000 M⁻¹ s⁻¹ |  |
| B5 |  | 0.0459 s⁻¹ | 2.19e+06 M⁻¹ s⁻¹ |  |
| B6 |  | 0.0106 s⁻¹ | 24000 M⁻¹ s⁻¹ |  |
| B7 |  | 0.0444 s⁻¹ | 1.83e+06 M⁻¹ s⁻¹ |  |
| B8 |  | 0.0287 s⁻¹ | 439000 M⁻¹ s⁻¹ |  |
| B9 |  | 0.00109 s⁻¹ | 6000 M⁻¹ s⁻¹ |  |
| B10 |  | 0.0104 s⁻¹ | 153000 M⁻¹ s⁻¹ |  |
| B11 |  | 0.0116 s⁻¹ | 1.88e+06 M⁻¹ s⁻¹ |  |

— paper PMC10441386 (bioRxiv, 2023)
